Measured values from paper PMC2583301 (The Journal of Biological Chemistry, 2008).
Changes are numbered by the printed parent chain. In names and notes the source's numbering stands. Read-outs that look alike come from different tables or passages of the source.

B1: yNap1 C200A/C249A/C272A labelled with Alexa dye at Cys-414 (yNap1m*) (natural protein)
chain: MSDPIRTKPKSSMQIDNAPTPHNTPASVLNPSYLKNGNPVRAQAQEQDDKIGTINEEDILANQPLLLQSIQDRLGSLVGQDSGYVGGLPKNVKEKLLSLKTLQSELFEVEKEFQVEMFELENKFLQKYKPIWEQRSRIISGQEQPKPEQIAKGQEIVESLNETELLVDEEEKAQNDSEEEQVKGIPSFWLTALENLPIVADTITDRDAEVLEYLQDIGLEYLTDGRPGFKLLFRFDSSANPFFTNDILAKTYFYQKELGYSGDFIYDHAEGAEISWKDNAHNVTVDLEMRKQRNKTTKQVRTIEKITPIESFFNFFDPPKIQNEDQDEELEEDLEERLALDYSIGEQLKDKLIPRAVDWFTGAALEFEFEEDEEEADEDEDEEEDDDHGLEDDDGESAEEQDDFAGRPEQAPECKQS
modifications: Alexa-546 or Alexa-488 on Cys-414
B2: yeast nucleosome assembly protein 1 (yNap1), wild type (natural protein)
chain: B1 chain with A200C, A249C, A272C

Experiments:
[1] = biological target: T1, H2A/H2B dimer (major type, wild type) (Xenopus laevis, UniProt P06897;P02281); assay: other fluorescence titration
[2] = biological target: T1, H2A/H2B dimer (major type, wild type); assay: other fluorescence titration; remark: listed apart in the source
[3] = biological target: T1, H2A/H2B dimer (major type, wild type); assay: other fluorescence titration; remark: listed apart in the source
[4] = biological target: T1, H2A/H2B dimer (major type, wild type); assay: other fluorescence titration; remark: listed apart in the source
H2A.Z/H2B dimer = H2A.Z/H2B dimer ( | Xenopus laevis, UniProt P0C0S5;P02281); assay: other fluorescence titration
H3 alone = H3 alone (Xenopus laevis, UniProt P84233 1-136); assay: other fluorescence titration
[5] = biological target: H2A refolded in the absence of H2B (Xenopus laevis, UniProt P06897 1-130); assay: other fluorescence titration
[6] = biological target: T1, H2A/H2B dimer (major type, wild type); assay: native gel or EMSA

| Binder | Kd [1] [nM] | Kd [2] [nM] | Kd [3] [nM] | Kd [4] [nM] | Kd (H2A.Z/H2B dimer) [nM] | Kd (H3 alone) [nM] | Kd [5] [nM] | binding result [6] |
| --- | --- | --- | --- | --- | --- | --- | --- | --- |
| B1 | 7.8 | 1.2 | 21.6 | 7.8 | 7.4 | > 10000 | 3.5 |  |
| B2 |  |  |  |  |  |  |  | binds |
